Assay [1] has as its target Venus-tagged mini-Gsi (mGsi). Briefly: BRET. Particulars: HEK293 cells; WKYMVm at x = -5 (highest concentration), 10 min; parent: est. 0.076; read off a plot.
Assay [2] has as its target β-arrestin 2 fused to Venus fluorescent protein (UniProt P32121). Briefly: BRET. To be noted: HEK293 cells; WKYMVm at x = -5 (highest concentration), 10 min; parent: est. 0.064; read off a plot. (In general: BRET reads energy transfer from a luciferase to a nearby fluorophore.)
In a further assay the target is FPR2 T331A-RLuc8 (human) (UniProt P25090). Briefly: FRET or BRET; BRET in live HEK293 cells co-transfected with receptor-RLuc8 (donor, 400 ng) and Venus-tagged mGsi, β-arrestin 1 or β-arrestin 2 (acceptor), 4:1 acceptor:donor; 37°C, Hank's balanced salt solution, 5 μM coelenterazine H; increasing WKYMVm, read 10 min after agonist; ratio acceptor:donor minus untreated; Emax by nonlinear regression; pertussis toxin pretreatment had no effect on β-arrestin recruitment.

The target in another assay is FPR2 S328A-RLuc8 (human) (UniProt P25090). The description is as above.
The next assay has as its target FPR2 S326A-RLuc8 (human) (UniProt P25090). Described as above.
For assay [3], the target named is N-terminal FLAG-tagged human formyl-peptide receptor 2 fused C-terminally to Renilla luciferase (FPR2-Rluc8) (human) (UniProt P25090). The description is as above.
The target is the same in assay [4]. Nature of the assay: FRET or BRET; BRET as a1, in ΔQ-GRK cells co-transfected with GRK3; WKYMVm 10 min.
For assay [5] the target is unchanged. Nature of the assay: FRET or BRET; BRET as a1, in ΔQ-GRK cells co-transfected with GRK6; WKYMVm 10 min.
Assay [6] has as its target FPR2 ΔABC with T331 reintroduced, RLuc8 fusion (human) (UniProt P25090). Nature of the assay: FRET or BRET; BRET in live HEK293 cells co-transfected with receptor-RLuc8 (donor, 400 ng) and Venus-tagged mGsi, β-arrestin 1 or β-arrestin 2 (acceptor), 4:1 acceptor:donor; 37°C, Hank's balanced salt solution, 5 μM coelenterazine H; increasing WKYMVm, read 10 min after agonist; ratio acceptor:donor minus untreated; Emax by nonlinear regression; pertussis toxin pretreatment had no effect on β-arrestin recruitment.

Assay [7] addresses FPR2 ΔABC with S328 (printed once as S329) reintroduced, RLuc8 fusion (human) (UniProt P25090). Described as above.
Assay [8] addresses FPR2 ΔABC with S326 reintroduced, RLuc8 fusion (human) (UniProt P25090). The assay is described as above.
Another assay deals with FPR2 ΔBC-RLuc8 (human) (UniProt P25090). Described as above.
A further assay deals with FPR2 ΔAB-RLuc8 (human) (UniProt P25090). The assay is described as above.
A further assay has as its target FPR2 ΔAC-RLuc8 (human) (UniProt P25090). Described as above.
The target of assay [9] is N-terminal FLAG-tagged human formyl-peptide receptor 2 fused C-terminally to Renilla luciferase (FPR2-Rluc8) (human) (UniProt P25090). The assay is described as above. The source holds these as a separate data set.
Assay [10] deals with FPR2 ΔABC-RLuc8 (all C-terminal serine and threonine residues mutated to alanine) (human) (UniProt P25090). Described as above.
Assay [11] addresses N-terminal FLAG-tagged human formyl-peptide receptor 2 fused C-terminally to Renilla luciferase (FPR2-Rluc8) (human) (UniProt P25090). Nature of the assay: FRET or BRET; BRET as a1, in CRISPR-Cas9-edited HEK293 cells without GRK2/3 (ΔGRK2/3); WKYMVm 10 min.
For assay [12] the target is unchanged. Nature of the assay: FRET or BRET; BRET as a1, in CRISPR-Cas9-edited HEK293 cells without GRK5/6 (ΔGRK5/6); WKYMVm 10 min.
For assay [13] the target is unchanged. Briefly: FRET or BRET; BRET as a1, in ΔQ-GRK cells co-transfected with GRK2; WKYMVm 10 min.
The target is the same in assay [14]. Briefly: FRET or BRET; BRET as a1, FPR2-RLuc8 with Venus-β-arrestin in Control cells of the GRK-edited HEK293 panel; WKYMVm 10 min.
For assay [15] the target is unchanged. Nature of the assay: FRET or BRET; BRET as a1, in ΔQ-GRK cells co-transfected with GRK5; WKYMVm 10 min.

As for “N-terminal FLAG-tagged human formyl-peptide receptor 2 fused C-terminally to Renilla luciferase (FPR2-Rluc8) (from UniProt P25090) DAC (… to …; R to A of the DRC motif)”, the response is 0 N-BRET in [1] and 0.033 N-BRET in assay [2].

Turning to “β-arrestin 1 fused to Venus fluorescent protein (from UniProt P49407 1-418) (natural protein)”, the Emax (BRET) (normalized acceptor:donor ratio) amounted to 0.0667 with FPR2 T331A-RLuc8 (human); 0.0481 with FPR2 S328A-RLuc8 (human); 0.0623 with FPR2 S326A-RLuc8 (human); 0.0821 in [3]; 0.0855 in assay [4]; 0.0557 in [5]. Further, the Emax (BRET) (normalized acceptor:donor ratio) in assay [6] was -0.000883; in assay [7], -0.00162; in assay [8], 0.00242; with FPR2 ΔBC-RLuc8 (human) it was 0.000955; with FPR2 ΔAB-RLuc8 (human), 0.0359; with FPR2 ΔAC-RLuc8 (human), 0.0638. In addition, the Emax (BRET) (normalized acceptor:donor ratio) is 0.0782 in assay [9]; 0.00138 in assay [10]; 0.0708 in assay [11]; 0.0299 in assay [12]; 0.0822 in assay [13]; 0.0931 in assay [14]. Also, the Emax (BRET) (normalized acceptor:donor ratio) in assay [15] worked out at 0.0884.

Consider “β-arrestin 2 fused to Venus fluorescent protein (from UniProt P32121 1-409) (natural protein)”, for which the Emax (BRET) (normalized acceptor:donor ratio) came to 0.0611 in the assay with FPR2 T331A-RLuc8 (human); 0.0608 with FPR2 S328A-RLuc8 (human); 0.0605 with FPR2 S326A-RLuc8 (human); 0.0854 in assay [3]; 0.0949 in [4]; 0.0583 in assay [5]. The Emax (BRET) (normalized acceptor:donor ratio) in assay [6] is 0.0194; in [7], 0.0111; in assay [8], 0.0217; in the assay with FPR2 ΔBC-RLuc8 (human), 0.0015; in the assay with FPR2 ΔAB-RLuc8 (human), 0.0396; in the assay with FPR2 ΔAC-RLuc8 (human), 0.0691. Further, the Emax (BRET) (normalized acceptor:donor ratio) in [9] was found to be 0.0715; in assay [10], 0.0146; in assay [11] it was 0.0807; in assay [12], 0.0541; in assay [13], 0.0987; in [14] it was 0.098. In addition, the Emax (BRET) (normalized acceptor:donor ratio) in assay [15] was 0.0971.

The values are drawn from PMC11773488.
